Key:
[1] = target: A2AR (human adenosine A2A receptor, non-fused) (human, UniProt P29274 1-412); assay: cell-based or functional assay
[2] = target: A2AR-Nluc-spacer (human adenosine A2A receptor fused to NanoLuc on the N-terminal end, with spacer) (human, UniProt P29274 1-412); assay: cell-based or functional assay
A2AR-Nluc-spacer (human adenosine A2A receptor fused to NanoLuc on the N-terminal end, with spacer), sequence (P29274 whole entry, the tested form may be a part): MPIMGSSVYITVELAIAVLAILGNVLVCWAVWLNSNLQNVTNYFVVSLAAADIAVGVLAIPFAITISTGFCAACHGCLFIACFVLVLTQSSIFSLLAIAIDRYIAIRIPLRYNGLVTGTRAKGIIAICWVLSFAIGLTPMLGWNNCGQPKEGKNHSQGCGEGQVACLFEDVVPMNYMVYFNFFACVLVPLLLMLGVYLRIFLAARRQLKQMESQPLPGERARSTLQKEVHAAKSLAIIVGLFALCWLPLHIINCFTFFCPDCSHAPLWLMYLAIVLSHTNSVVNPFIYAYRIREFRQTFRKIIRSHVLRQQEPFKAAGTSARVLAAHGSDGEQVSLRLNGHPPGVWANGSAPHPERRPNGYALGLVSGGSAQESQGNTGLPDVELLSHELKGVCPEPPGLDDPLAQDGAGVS

A2AR (human adenosine A2A receptor, non-fused), sequence (P29274 whole entry, the tested form may be a part): as above

B1: Bovine adenosine deaminase (ADA) (enzyme, UniProt P56658 1-363, looked up)
chain: MAQTPAFNKPKVELHVHLDGAIKPETILYYGRKRGIALPADTPEELQNIIGMDKPLSLPEFLAKFDYYMPAIAGCREAVKRIAYEFVEMKAKDGVVYVEVRYSPHLLANSKVEPIPWNQAEGDLTPDEVVSLVNQGLQEGERDFGVKVRSILCCMRHQPSWSSEVVELCKKYREQTVVAIDLAGDETIEGSSLFPGHVKAYAEAVKSGVHRTVHAGEVGSANVVKEAVDTLKTERLGHGYHTLEDATLYNRLRQENMHFEVCPWSSYLTGAWKPDTEHPVVRFKNDQVNYSLNTDDPLIFKSTLDTDYQMTKNEMGFTEEEFKRLNINAAKSSFLPEDEKKELLDLLYKAYGMPSPASAEQCL
B1 was tested, and the “EC50: concentration of ADA (0.1 ng/ml to 10 ug/ml) providing half-maximal increase in binding of 2.2 nM [3H]ZM 241385 to membranes of transfected HEK-293T cells” value [1] was 4 ng/mL and the “EC50: concentration of ADA (0.1 ng/ml to 10 ug/ml) providing half-maximal increase in binding of 2.2 nM [3H]ZM 241385 to membranes of transfected HEK-293T cells” value [2] was 14 ng/mL.
